From publication PMC10318897, “The structure of Leptospira interrogans GAPDH sheds light into an immunoevasion factor that can target the anaphylatoxin C5a of innate immunity” (Frontiers in Immunology, 2023)

Experiments:
[1] = system: NC(=O)c1ccc[n+]([C@@H]2O[C@H](COP(=O)(O)OP(=O)(O)OC[C@H]3O[C@@H](n4cnc5c(N)ncnc54)[C@H](O)[C@@H]3O)[C@@H](O)[C@H]2O)c1; assay: purified protein; settings: 2 mM G3P, 5 mM phosphate, 40 mM Tris-HCl pH 8.5, 2 mM EDTA, 25 °C
O=C[C@H](O)COP(=O)(O)O = assay: purified protein; settings: 2 mM NAD+, 5 mM phosphate, 40 mM Tris-HCl pH 8.5, 2 mM EDTA, 25 °C, fit with substrate inhibition

LiGAPDH (Leptospira interrogans serovar Copenhageni str. Fiocruz L1-130)
Km [1]: 81 ± 6 µM | kcat [1]: 44.2 ± 0.9 s⁻¹ | kcat/Km [1]: 543000 ± 44000 M⁻¹ s⁻¹ | Km (O=C[C@H](O)COP(=O)(O)O): 600 ± 100 µM | kcat (O=C[C@H](O)COP(=O)(O)O): 70 ± 7 s⁻¹ | kcat/Km (O=C[C@H](O)COP(=O)(O)O): 121000 ± 24000 M⁻¹ s⁻¹
